Data as given in the nanobody polyreactivity screen of Harvey et al. (2022).

Assay: yeast display, Sf9 membrane polyspecificity reagent, FACS + sequencing; frameworks hold sequencing errors
In short: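 Polyreactivity labels are assigned by the sorting gate from which each nanobody was recovered. The gates were low and high (top ~1%), set on anti-HA fluorescence for expression and streptavidin fluorescence for reagent binding. Before sorting, galactose-induced (36–48 hours) yeast display cells were stained for 1 hour at 4 °C with 10% biotinylated, detergent-solubilized Sf9 membrane reagent.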

Row | Sequence | polyreactivity (PSR sort gate)
1 | QVQLVESGGGLVEAGGSLRLSCAASGSTSRHNTMGWYRQAPGKERELVAAISGGGTTYYADSVKGRFTISRDNAKNTVYLQMNRLNPEDTAVDDCAAAFWGDYASSYRAGLDYWGQGTQETVSS | low polyreactivity
2 | QVQLVESGGGLVEAGGSLRLTCAASGSIFTYYAMGWFRPAPGKERELVADITKSGGRTYYADSVKGRFTISRDNAKNTVYLQMYSLKPEDTAVYYCAAYRRNSRWELDYWGHGTQVTVSS | high polyreactivity
3 | QVQLVESGGGLVHAGCSLRLSCAASGFTFKYYAMGWYRQPPGKEREIVAAISYSGGRTYYADSVKGRFTISRDNAKNTVYLQMNSLKPEDTAVYYCATDDVWKDGYWGQGTQVTVSS | low polyreactivity
4 | QVQLVESGGGLVHAGGRLRLSCAASGRIFWINAMGWSRQAPGKDRELVATISSGSTSYADSVKGRFTISRDNAKNTVYLQMNRLKPEATAVYYCAVTLRYTRSGAYDYWGQGTQVTVSS | low polyreactivity
5 | QVQLVESGGGLVHAGGRLRLSFAASGSIFAVYAMGWYRQAPGKEREFVARIAWGGGRTYYADSVKGRFTISRDNAQNTVYLQMNSLKPEDTAVYYCNAERAGTYRYDYWGQGPQVTVSS | high polyreactivity
6 | QVQLVESGGGLVHAGGSIRLSCAASGRIFPAYAMGWYRQAPGKERELVASIRRGGITYADSVKGRFTISRDNAKNTVYLQMNSLKPEDTAVYYCNADYRGWVYHMDYWGQGTQVTVSS | low polyreactivity
7 | QVQLVESGGGLVHAGGSLPLSCAASGLTFGSNPMRTYRQAPVQERELVAAISGGTSTNYADSVKGRFTISRDNAKNTVYLQMNSMTPEDTAVYYCAAAKRTADYASYWYVENDYWGQGSQVTVSS | low polyreactivity
8 | QVQLVESGGGLVHAGGSLRISCAASGSTFEWNAMGWYRQAPGKEREFVAAISKTGDGTYADSVKGRFTISRDNAKNSVYLQMNSLKPEDTAVYYCAAVDGFWVNYWYRIGYDYWGQGTQVTVSS | low polyreactivity
9 | QVQLVESGGGLVHAGGSLRLSCAACGRIFTYYAMGWYRQAPGKERELVAAITWSGGSTYYADSVKGRFTISRDNAKNTVYLQMNSLKPEDTAVYYCNAVVLHVTTDNSTFTTDDYWGQGTQVTVSS | low polyreactivity
10 | QVQLVESGGGLVHAGGSLRLSCAASGFIFAANAKGWYRQAPGKERELVAAINYRGSSTYYADSVKGRFTISRDNAKNTVYLQMNSLKPYDTAVYYCAAVSSIYSGYGYWGQGTQVTVSS | high polyreactivity
11 | QVQLVESGGGLVHAGGSLRLSCAASGFIFDRYVMGWYRQAPGKERDLVAAINRSGGSTYYADSVKGRFTISRDNAKNTVYLQMNSLKPEDTAVYYCAADRAGSFTTMDYWGHGTQVTVSS | high polyreactivity
12 | QVQLVESGGGLVHAGGSLRLSCAASGFIFDTYAMGWYRQAPGKERELVAAISRSGVRTYYADSVKGRFTISRDNAKNTVYLQMNILKPEDTAVYYCNAALNRYHFGRAFPGVYWGHGTQVTVSS | high polyreactivity
13 | QVQLVESGGGLVHAGGSLRLSCAASGFIFGINAMGWYRQAPGKERELVATITSGGGTNYADSVKGRFTISRDNAKNTVYLQMKSVKPEDTAVYYCADEDDYIYFYLSMDYWGQCTQVTVSS | low polyreactivity
14 | QVQLVESGGGLVHAGGSLRLSCAASGFIYDAYANGWYRQSPGKERELVAAIDSGGSTDYADSVKGRFTISRDNAKNTVYLQMNSLKPEDTAVYYCNAERAYLWWYNFDYWGQGTQVTVSS | low polyreactivity
15 | QVQLVESGGGLVHAGGSLRLSCAASGFTFGSNAMGWYRQAPGKERELVAAISSRGGRTYYADSVKGRFTISRDNAKNTVYLQMNRLKPDDTAVYYCNADATVAWREQEYEYWGQGTQVSVSS | high polyreactivity
16 | QVQLVESGGGLVHAGGSLRLSCAASGITFEVYGMGWYRQSPGKERELVAAINSDGNTNYADSVKGRFTISRDNAKNTVYLEMNSVKPEDTAVYYCATVVNAQISRGESAVTGYYYWGQGTQVTVSS | high polyreactivity
17 | QVQLVESGGGLVHAGGSLRLSCAASGITSPYSMGWYRQSPGKERELVAAISSGASTYYADTVKGRFTISRDNAKNTVYLQMNSLKPEVTAVYYCNRVTKRYPNIGNYWGQGTQVTLSS | high polyreactivity
18 | QVQLVESGGGLVHAGGSLRLSCAASGLIFPRYDMGWYRQAPGKELELVAAITSGGGTYYADSVKGRITISRDNAKNTVYLQMNSLIPEDTAVYYCARDHYRHSRFFYRYVYWGQGTQVSVSS | low polyreactivity
19 | QVQLVESGGGLVHAGGSLRLSCAASGLTFYGYTMGCYRQAPGKERQLVADISISGGSTRYADSVKGRFTISRDNAKNTVYLQMISLKPEDTAVYYCARDDIYYSNIYDYWGQGTQVTVSS | low polyreactivity
20 | QVQLVESGGGLVHAGGSLRLSCAASGMTFTKNVMGWYRQSPGKERELVAVISRSGGSTYYADSVKGRFTISRDNAKNTVYLQMNSLKPEDTAVYYCNVKGPGPSRGNYWGQGTQVTVSS | low polyreactivity
21 | QVQLVESGGGLVHAGGSLRLSCAASGRIFGVYAMGWYRQAPGKERELVAAISEGGGSTNYADSVKGRFTISRDNAKNTVYLQMNSLKPEDTAVYYCAATYRTGVRRYYSWGQGTQVTVSS | low polyreactivity
22 | QVQLVESGGGLVHAGGSLRLSCAASGRTFGTYAKGWYRQAPGKERELVAAISSRGGSTYYADSVKGRFTISRDNAKNTVYLQMNSLKPEDTAVYYCAQRVKDGSGYWGQGTQVTVSS | high polyreactivity

Row | Sequence | polyreactivity (PSR sort gate)
23 | QVQLVESGGGLVHAGGSLRLSCAASGRTFNRYAMGWYRQAPGKERELVAAISGGGSSTSYADSVKGRFTISRDNAKNTVYLQMNSLKPEDTAVYYCAAKYGGLRYYNMYYWGQGTQVTVSS | low polyreactivity
24 | QVQLVESGGGLVHAGGSLRLSCAASGRTFNWNAMGWYRQEPGKEREFVASINGGGSSYYADSVKGRFTISRDNAKNTVYLQMNSLKPDDTAVYYCAAPWVGTFVSGRCYYWGQGTHVTVSS | low polyreactivity
25 | QVQLVESGGGLVHAGGSLRLSCAASGRTFRWYALGWYRQAPGKERELVAAISSSGTRTYYADSVKGRFTISRDNAKNTVYLQMNSLKPEDTAVYYCAATWRVGYDYWGQGTQVTVSS | high polyreactivity
26 | QVQLVESGGGLVHAGGSLRLSCAASGRTLKYYAMGWYRQAPGKERELVAAISGGDSTYYADSVKGRFTISRDNAKNTVYLQMNSLKPEDTAVYYCNARRFIWWYPYLRDYWGQGTQVTVSS | high polyreactivity
27 | QVQLVESGGGLVHAGGSLRLSCAASGSIFDDYAMGWYRQAPGKERELVAAITSGGSTYYADSVKGRFTISRDNAKNTVYLQMNSLKTEDTAVYYRATRYHWSSCFAPVGAYGYWGLGTQVTVSS | low polyreactivity
28 | QVQLVESGGGLVHAGGSLRLSCAASGSIFEGNGMGWYRQAPGKERELVAAITFRSGSTYNADSVKGRFTISRDNEKNTVYLPMNSLKPEDTAVYYCAADEYYQVSAYDYWGQGTQVTVSS | low polyreactivity
29 | QVQLVESGGGLVHAGGSLRLSCAASGSIFGWYAMGWYRQAPGKERELVASISWSGGGTYYADSVKGRFTISRDNAKNTVYLQMKSLKPEDTAVYYCAAVYIWRYGIRGGYYWGQGTQVSVSS | high polyreactivity
30 | QVQLVESGGGLVHAGGSLRLSCAASGSIFNVYAMGWYRQAPGKERELVAAITQSGGSTYYADSVKGRFTISRDNAKNTVYLQMNSLKPEDTAVSYCAADNRYTYYYWGQCTQVTVSS | low polyreactivity
31 | QVQLVESGGGLVHAGGSLRLSCAASGSIFRGYAMGWYRQAPGKERELVAAISRDGGSTYYADSVKGRFSISRDNAKNTVYLQMNSLKPEETAVYYCAADYVAYATYGDGDYWGQGTQVTVSS | high polyreactivity
32 | QVQLVESGGGLVHAGGSLRLSCAASGSIFRPYAMGWYRQAPGKERELVAAISRRGGSTYYADSVKGRFTISRDNAKNTVYLQLISLKPEDTAVYYCAADHSGPSPYGYGYWGQGTQVTVSS | high polyreactivity
33 | QVQLVESGGGLVHAGGSLRLSCAASGSIFVRNDMGWYRPAPGKERELVAVITRSAGGTYYADSVKGRFTISRDTAKNSVYFQMNSLKPEDTAFYYCAASPSTPNKYGSWGHGTQVTVSS | high polyreactivity
34 | QVQLVESGGGLVHAGGSLRLSCAASGSIITYYAMGWSRQAPGKERELVAVISASGGRTYYADSVKVRFTISLDNAMYSVYLQMNSLKPEDTAVYYCAAYRSIYSFKFGYWGQGSQVTVSS | high polyreactivity
35 | QVQLVESGGGLVHAGGSLRLSCAASGSILARYARGWYRQEPGKERELVAAISSRGGSTYYADSVKGRFTISRDYAKNTVYLQMNSLKPEDTAVYYCAASVYLQVEYDYWGQGTQVTVSS | low polyreactivity
36 | QVQLVESGGGLVHAGGSLRLSCAASGSTFDRNAMGWARQAPGKDMELVDAISRSGGSTNYADSVKGRFTISRDNAKNTVYLQMNSLKPEDTAVYYCAAVRPLWYGQGWALYWFEYWGQGTQVTVSS | low polyreactivity
37 | QVQLVESGGGLVHAGGSLRLSCAASGSTFIRNAMGWYRQAPGKERELVAAISSSGGRTYYADSVKGRFTISRDNAKNTVYLQMNSLKPEDTAVYYCAARYVPPWGRRYYYWGQGTQVTVSS | high polyreactivity
38 | QVQLVESGGGLVHAGGSLRLSCAASGSTFNRYAMGWYRQAHGKERELVASISWGGGRTYYADSVKGRFTISRDNEKNTVYLLMNSLKPEDTAVYYCATDRYYRHYEVDYWGQGTQVTVSS | low polyreactivity
39 | QVQLVESGGGLVHAGGSLRLSCAASGSTFPRNDMGWYRQAPGKERELVAAISRGGSTNYADSVKGRFTISRDNAKNTVYLQMNSLKPEDTAVYYCAAQIFESAYGMDYWGQGTQVTVSS | low polyreactivity
40 | QVQLVESGGGLVHAGGSLRLSCAASGSTFWANAMGWYRPPPGKERELVAAITSTGITYYADSVKGRFTISRDNAKNTVYLQMNSLKPEDTAVYYCAADGFRYSVYLIRNPMDYWGQGTQVTVSS | low polyreactivity
41 | QVQLVESGGGLVHAGGSLRLSCAASGSTSGIYAMGWYRQAPGKERELVAAIDTSGGSTYADSLKGRFTISRDNAKYTVYLQMNSLKPEDTAGYYCAKPFSSNSWSHGYWGQGTQVTVSS | low polyreactivity
42 | QVQLVESGGGLVHAGGSLRLSCAASGYSSSQNAMVWYRQEPGKERELLARITTDGTSTYYADSVKGRFTISRDNAKNTVYLHMNSLKPEDTAVYYCNARYPAYVVRSWYPYAYYYWGQGTQVTVSS | low polyreactivity
43 | QVQLVESGGGLVHAGGSLRLSCAAWSIFYLNAMGWYRQAPGKERELVAAISSAGSTYYADSVKGRFTISRDNAKNTVYLQMNSLKPEDTAVYYCAAYWYDSPGVTEIWYDYWGQGTQVTVSS | low polyreactivity
